Changes are numbered by the printed parent chain.
How the values were obtained:
[1] = target: GST‐tagged W105,107A variant of recombinant P. falciparum enolase (not stated | Plasmodium falciparum); test: SEC; proteins with the GST tag; Superdex‐200 Increase 10/300 GL, 1 mg protein in 0.5 mL buffer; 50 mM Tris‐HCl, 150 mM NaCl, 5 mM MgCl2 pH 7.5
[2] = target: GST‐tagged W105,107A variant of recombinant P. falciparum enolase (not stated | Plasmodium falciparum)
[3] = target: GST‐tagged W105,107K variant of recombinant P. falciparum enolase (not stated | Plasmodium falciparum); test: SEC; proteins with the GST tag; Superdex‐200 Increase 10/300 GL, 1 mg protein in 0.5 mL buffer; 50 mM Tris‐HCl, 150 mM NaCl, 5 mM MgCl2 pH 7.5
[4] = target: GST‐tagged W105,107K variant of recombinant P. falciparum enolase (not stated | Plasmodium falciparum)
[5] = target: the molecule itself; test: cell-based or functional assay
[6] = target: the molecule itself; test: SEC; proteins without the GST tag; Superdex‐200 HiLoad 16/600, 1–2 mg of protein in 2 mL buffer; 50 mM Tris‐HCl, 150 mM NaCl, 5 mM MgCl2 pH 7.5; dimer to monomers

GST‐tagged W105,107A variant of recombinant P. falciparum enolase (enzyme)
stoichiometry N [1]: 2 | enolase activity, V max (% of GST‐rPfeno) (% of GST‐rPfeno) [2]: 22

GST‐tagged W105,107K variant of recombinant P. falciparum enolase (enzyme)
stoichiometry N [3]: 2 | enolase activity, V max (% of GST‐rPfeno) (% of GST‐rPfeno) [4]: 33

B1: W105,107A variant of recombinant P. falciparum enolase, GST tag removed (enzyme, Plasmodium falciparum, UniProt Q27727 1-446, looked up)
chain: MAHVITRINAREILDSRGNPTVEVDLETNLGIFRAAVPSGASTGIYEALELRDNDKSRYLGKGVQKAIKNINEIIAPKLIGMNCTEQKKIDNLMVEELDGSKNEAGASKSKLGANAILAISMAVCRAGAAPNKVSLYKYLAQLAGKKSDQMVLPVPCLNVINGGSHAGNKLSFQEFMIVPVGAPSFKEALRYGAEVYHTLKSEIKKKYGIDATNVGDEGGFAPNILNANEALDLLVTAIKSAGYEGKVKIAMDVAASEFYNSENKTYDLDFKTPNNDKSLVKTGAQLVDLYIDLVKKYPIVSIEDPFDQDDWENYAKLTAAIGKDVQIVGDDLLVTNPTRITKALEKNACNALLLKVNQIGSITEAIEACLLSQKNNWGVMVSHRSGETEDVFIADLVVALRTGQIKTGAPCRSERNAKYNQLLRIEESLGNNAVFAGEKFRLQLN
enolase activity, V max (% WT rPfeno) [5]: 4 % of WT‐rPfeno

B2: recombinant P. falciparum enolase, wild type (WT‐rPfeno), GST tag removed (enzyme, Plasmodium falciparum, UniProt Q27727 1-446, looked up)
chain: B1 chain with A105W, A107W
notes: Plasmodium falciparum enolase (Pfeno), UniProt Q27727, 446 amino acids; also called Plasmodium falciparum enolase; source: E. coli BL21 (DE3), pGEX4T1, purified on glutathione Sepharose, GST tag cut off with thrombin
stoichiometry N [6]: 2

Reference: publication PMC5494301, “Functions of tryptophan residues in EWGWS insert of Plasmodium falciparum enolase” (FEBS Open Bio, 2017)
